Assay [1] has as its target gp100 antigen presented on the surface of B16F10 (gp100+) mouse melanoma cells treated with 1 µM hgp100 peptide (human) (UniProt P40967). The assay can be described thus: cell-based or functional assay.
The target is the same in assay [2]. The assay can be described thus: microfluidic shear detachment of primary mouse T cells from hgp100-pulsed B16F10 monolayer.

Consider “T cell receptor of TCR-transgenic Thy1.1+ pmel-1 (Pmel) mouse T cells”, for which, in assay [1], the IFN-γ secretion (ELISA of overnight T cell-B16F10 co-culture media) was 2120 pg/mL. The percent of T cells remaining bound at 1.9 Pa in assay [2] amounted to 19.4%.

The values above are taken from US20240269676A1.
